The values below come from US20070059799A1.

The target in assay [1] is HLA-A*0301 (human). The assay can be described thus: competition with 125I-labelled standard peptide on purified HLA, gel filtration.
For assay [2], the target named is HLA-A*3301 (human). The description is as above.
In assay [3] the target is HLA-A*1101 (human). The assay is described as above.
Assay [4] has as its target HLA-A*3101 (human). The assay is described as above.
The target of assay [5] is HLA-A*3301 (human). The assay can be described thus: inhibition of 125I-labelled standard peptide binding to purified HLA.
For assay [6], the target named is HLA-A*1101 (human). The assay is described as above.
A further assay concerns the target HLA-A*6801 (human). The assay can be described thus: competition with 125I-labelled standard peptide on purified HLA, gel filtration. To be noted: remark: other sources report otherwise.
Assay [7] addresses HLA-A*0201 (Human). The assay can be described thus: competition with 125I-labeled probe peptide for purified HLA, gel filtration. Particulars: remark: other sources report otherwise.
The target in assay [8] is HLA-A*3101 (human). The assay can be described thus: inhibition of 125I-labelled standard peptide binding to purified HLA.
The target in assay [9] is HLA-A*0201 (Human). The assay can be described thus: competition with 125I-labelled standard peptide for purified HLA, gel filtration.
Assay [10] has as its target HLA-A*0301 (human).
Assay [11] deals with HLA-B*5401 (human). The assay can be described thus: competition with 125I-labelled probe peptide for purified HLA, gel filtration. Particulars: remark: other sources report otherwise.
The target in the next assay is HLA-B*5301 (human). The assay can be described thus: competition with 125I-labelled standard peptide for purified HLA, gel filtration.
Assay [12] deals with HLA-B*0702 (human).
Assay [13] deals with HLA-A*0301 (human). This is another data set of the same source.
Assay [14] has as its target HLA-A*0301 (human). The assay can be described thus: competition with 125I-labelled probe peptide for purified HLA, gel filtration.
The target in assay [15] is HLA-B*0702 (human). The assay can be described thus: competition with 125I-labelled standard peptide for purified HLA, gel filtration.
The target in assay [16] is HLA-B*5401 (human). The description is as above.
[17] abbreviates: remark: other sources report otherwise.

Where two headings read alike, the source gives them in different places.

With SALNPADDPSR (modifications not checked) [HBV POL 771 11-mer peptide … (SEQ ID NO: 654)], the binding affinity ratio (IC50 of standard peptide / IC50 of test peptide) with HLA-A*0301 (human) [1] is -0.0004; in the assay with HLA-A*3301 (human) [2] it was -0.0023; with HLA-A*1101 (human) [3], -0.0003; with HLA-A*3101 (human) [4], -0.0012.

PLTVNEKRR (modifications not checked) [HBV POL 98 peptide …]: the binding affinity ratio (IC50 of standard peptide / IC50 of test peptide) was determined as 0.0027 with HLA-A*3301 (human) [5] and 0.0005 with HLA-A*1101 (human) [6].

Regarding TLPETTVVR (modifications not checked) [HBV NUC 171 9-mer peptide … (SEQ ID NO: 662)], the binding affinity ratio (IC50 of standard peptide / IC50 of test peptide) worked out at 0.018 with HLA-A*6801 (human) and 0.0009 with HLA-A*3101 (human) [4] (setting [17]).

Take PVGAESRGR (modifications not checked) [HBV X 20 peptide …]: the values for the binding affinity ratio (IC50 of standard peptide / IC50 of test peptide) in the assay with HLA-A*3301 (human) [5] and with HLA-A*1101 (human) [6] were 0.0043 and 0.0005, respectively.

In the assay with HLA-A*0201 (Human) [7], MMWYWGPSL (modifications not checked) [HBV ENV 360 peptide 1039.031 (…)] yielded an IC50 of 5.6 nM.

In the case of PLTVNEKR (modifications not checked) [HBV POL 98 peptide PLTVNEKR], the binding affinity ratio (IC50 of standard peptide / IC50 of test peptide) with HLA-A*3301 (human) [5] is -0.0009; in the assay with HLA-A*1101 (human) [6], -0.0002; with HLA-A*3101 (human) [8], -0.0009.

As to SAGPCALR (modifications not checked) [HBV X 65 8-mer peptide SAGPCALR (SEQ ID NO: 651)], the binding affinity ratio (IC50 of standard peptide / IC50 of test peptide) is -0.0002 with HLA-A*0301 (human) [1] (setting [17]), 0.002 with HLA-A*1101 (human) [3] (setting [17]), 0.036 with HLA-A*6801 (human) and 0.0029 in the assay with HLA-A*3101 (human) [4] (setting [17]).

Regarding GLSPTVWLSVI (modifications not checked) [HBV ENV 348 peptide …], the binding affinity ratio (IC50 of standard peptide / IC50 of test peptide) with HLA-A*0201 (Human) [9] amounted to 0.0036.

For TDNSVVLSRK (modifications not checked) [HBV POL 736 …], the binding affinity ratio (IC50 of standard peptide / IC50 of test peptide) with HLA-A*0301 (human) [10] is 0.0006.

Regarding LPIHTAELLA (modifications not checked) [HBV POL 723 peptide 16.0181 (…)], the IC50 with HLA-B*5401 (human) [11] was 30 nM.

Take PPAYRPPNAPI (modifications not checked) [HBV NUC 129 peptide …]: in the assay with HLA-B*5301 (human), the binding affinity ratio (IC50 of standard peptide / IC50 of test peptide) is -0.0003.

Take TSAICSVVR (modifications not checked) [HBV POL 519 …]: the binding affinity ratio (IC50 of standard peptide / IC50 of test peptide) with HLA-A*0301 (human) [10] (setting [17]) worked out at 0.0005.

IPWTHKVGNF (modifications not checked) [HBV POL 50 peptide …]: the binding affinity ratio (ratio to standard peptide) in the assay with HLA-B*0702 (human) [12] was determined as 0.0013.

For the molecule YLVSFGVWIR (modifications not checked) [… (HBV NUC 118)], the binding affinity ratio (IC50 of standard peptide / IC50 of test peptide) in the assay with HLA-A*0301 (human) [13] was found to be 0.0005.

Regarding GLSPTVWL (modifications not checked) [HBV ENV 348 peptide GLSPTVWL], the binding affinity ratio (IC50 of standard peptide / IC50 of test peptide) with HLA-A*0201 (Human) [9] is 0.0036.

Regarding PLEEELPR (modifications not checked) [HBV POL 20 peptide PLEEELPR], the binding affinity ratio (IC50 of standard peptide / IC50 of test peptide) in the assay with HLA-A*3301 (human) [5] was -0.0009; in the assay with HLA-A*1101 (human) [6] it was -0.0002; with HLA-A*3101 (human) [8], -0.0009.

In the assay with HLA-A*0201 (Human) [7], FLLAQFTSA (modifications not checked) [HBV POL 524 peptide 1069.073 (…)] gave an IC50 of 6 nM.

As for TLWKAGILYKR (modifications not checked) [HBV POL 150 …], in the assay with HLA-A*0301 (human) [10] (setting [17]), the binding affinity ratio (IC50 of standard peptide / IC50 of test peptide) worked out at 0.0082.

For the molecule LLDTASALYR (modifications not checked) [HBV NUC 30 peptide …], the binding affinity ratio (IC50 of standard peptide / IC50 of test peptide) with HLA-A*0301 (human) [14] is 0.005.

For the molecule YSLNFMGY (modifications not checked) [YSLNFMGY (HBV POL 580)], the binding affinity ratio (IC50 of standard peptide / IC50 of test peptide) with HLA-A*0301 (human) [13] is -0.0002.

Regarding TSAICSVVR (modifications not checked) [HBV POL 519 9-mer peptide … (SEQ ID NO: 667)], the binding affinity ratio (IC50 of standard peptide / IC50 of test peptide) in the assay with HLA-A*0301 (human) [1] (setting [17]) worked out at 0.0005; in the assay with HLA-A*3301 (human) [2] (setting [17]) it was 0.02; with HLA-A*6801 (human), 0.082; with HLA-A*3101 (human) [4] (setting [17]) it was 0.06.

Regarding WIRTPPAY (modifications not checked) [WIRTPPAY (HBV NUC 125)], the binding affinity ratio (IC50 of standard peptide / IC50 of test peptide) with HLA-A*0301 (human) [13] was -0.0002.

Regarding RTPSPRRR (modifications not checked) [HBV NUC 188 8-mer peptide ATPSPRRR (SEQ ID NO: 648)], the binding affinity ratio (IC50 of standard peptide / IC50 of test peptide) with HLA-A*0301 (human) [1] was -0.0002; with HLA-A*3301 (human) [2], 0.0014; with HLA-A*1101 (human) [3] it was -0.0002; in the assay with HLA-A*3101 (human) [4], 0.0033.

On to WLWGMDIDPYK (modifications not checked) [… (HBV NUC 26)], for which the binding affinity ratio (IC50 of standard peptide / IC50 of test peptide) in the assay with HLA-A*0301 (human) [13] (setting [17]) came out at 0.003.

As for GLLGFAAPFT (modifications not checked) [HBV POL 627 peptide …], in the assay with HLA-A*0201 (Human) [9], the binding affinity ratio (IC50 of standard peptide / IC50 of test peptide) worked out at 0.0049.

Turning to GVWIRTPPA (modifications not checked) [HBV NUC 123 peptide …], the binding affinity ratio (IC50 of standard peptide / IC50 of test peptide) with HLA-A*0201 (Human) [9] was 0.003.

On to NPLGFFPDHQL (modifications not checked) [HBV ENV 9 peptide […]], for which the binding affinity ratio (IC50 of standard peptide / IC50 of test peptide) with HLA-B*0702 (human) [15] was determined as 0.0012; with HLA-B*5301 (human) it was 0.0028.

Consider PLSYQHFRK (modifications not checked) [HBV POL 2 peptide …], for which the binding affinity ratio (IC50 of standard peptide / IC50 of test peptide) with HLA-A*1101 (human) [6] was 0.0031; in the assay with HLA-A*3101 (human) [8], 0.0006.

On to TAELLAACFAR (modifications not checked) [HBV POL 716 11-mer peptide … (SEQ ID NO: 661)], for which the binding affinity ratio (IC50 of standard peptide / IC50 of test peptide) is 0.0006 with HLA-A*0301 (human) [1] (setting [17]); 0.16 with HLA-A*3301 (human) [2] (setting [17]); 0.0023 in the assay with HLA-A*1101 (human) [3] (setting [17]); 0.059 with HLA-A*6801 (human); 0.0066 with HLA-A*3101 (human) [4] (setting [17]).

As to VPNLQSLTNL (modifications not checked) [HBV POL 398 peptide …], the binding affinity ratio (IC50 of standard peptide / IC50 of test peptide) with HLA-B*0702 (human) [15] was 0.0008.

On to WLQFRNSK (modifications not checked) [WLQFRNSK (HBV POL 314)], for which the binding affinity ratio (IC50 of standard peptide / IC50 of test peptide) in the assay with HLA-A*0301 (human) [13] was -0.0002.

On to SAICSVVR (modifications not checked) [HBV POL 520 8-mer peptide SAICSVVR (SEQ ID NO: 652)], for which the binding affinity ratio (IC50 of standard peptide / IC50 of test peptide) with HLA-A*3301 (human) [2] (setting [17]) amounted to 0.0081; with HLA-A*1101 (human) [3] (setting [17]), 0.0071; with HLA-A*6801 (human), 0.069; with HLA-A*3101 (human) [4] (setting [17]), 0.028.

Consider TPPAYRPPNA (modifications not checked) [HBV NUC 128 peptide …], for which the binding affinity ratio (IC50 of standard peptide / IC50 of test peptide) with HLA-B*5401 (human) [16] is 0.01.

For the molecule SPEHCSPHHTA (modifications not checked) [HBV NUC 44 peptide […]], the binding affinity ratio (IC50 of standard peptide / IC50 of test peptide) in the assay with HLA-B*5401 (human) [16] was 0.0011; in the assay with HLA-B*0702 (human) [15] it was -0.0002; in the assay with HLA-B*5301 (human), -0.0003.

As to HLNPNKTKR (modifications not checked) [HBV POL 569 peptide …], in the assay with HLA-A*0301 (human) [14], the binding affinity ratio (IC50 of standard peptide / IC50 of test peptide) was determined as 0.0025.

On to TLWKAGILYKR (modifications not checked) [HBV POL 150 11-mer peptide … (SEQ ID NO: 666)], for which the binding affinity ratio (IC50 of standard peptide / IC50 of test peptide) with HLA-A*0301 (human) [1] (setting [17]) was found to be 0.0082; with HLA-A*3301 (human) [2] (setting [17]), 0.11; with HLA-A*1101 (human) [3] (setting [17]), 0.0095; in the assay with HLA-A*6801 (human) it was 0.064; with HLA-A*3101 (human) [4] (setting [17]) it was 0.1.

With TAELLAACFAR (modifications not checked) [HBV POL 716 …], the binding affinity ratio (IC50 of standard peptide / IC50 of test peptide) with HLA-A*0301 (human) [10] (setting [17]) was found to be 0.0006.
